According to US20260061042A1, “POLYNUCLEOTIDE COMPOSITIONS AND USES THEREOF” (Pfizer Inc., priority 2024, published 2026):
Entries after “also recorded” stand apart in the source; their conditions may differ.

B1: BMD576_PapG-DSF K172A_Thy1-GPI: monovalent PapG modRNA LNP; RNA construct SEQ ID NO: 66 (nucleic acid)
chain: AGGAGGACUGGUCGAACCUGCAUAGUGAUCAUAAGGUCAGCAUAGCCACCAUGGAGACCGACACCCUCCUGCUGUGGGUGCUGUUACUGUGGGUGCCCGGUAGCACCGGCUGGAACAACAUCGUGUUCUACAGCCUGGGCAACGUGAACAGCUACCAAGGCGGCAACGUGGUGAUCACACAGAGACCUCAGUUCAUCACAAGCUGGAGACCCGGCAUCGCCACCGUGACCUGGAAUCAGUGCAACGGCCCCGAGUUCGCCGACGGCAGCUGGGCCUACUACAGAGAGUACAUCGCCUGGGUGGUGUUCCCCAAGAAGGUGAUGACCAAGAACGGCUACCCCCUGUUCAUCGAGGUGCACAACAAGGGCAGCUGGAGCGAGGAGAACACCGGCGACAGCGACAGCUACUUCUUCCUGAAGGGCUACAAGUGGGACGAGAGAGCCUUCGACGCCGGCAACCUGUGUCAGAAGCCGGGGGAGACCACAAGACUUACCGAGAAGUUCAACGACAUCAUCUUCAAGGUGGCCCUGCCCGCCGACCUGCCCCUGGGCGACUACAGCGUGACCAUCCCCUACACAAGCGGCAUUCAGAGACACUUCGCUAGCUACCUGGGCGCUAGAUUCGCCAUCCCCUACAACGUGGCCAAGACCCUGCCUAGAGAGAACGAGAUGCUGUUCCUGUUCAAGAACAUCGGCGGCUGCAGACCUAGCGCUCAGAGCCUGGAGAUCAAGCACGGCGACCUGAGCAUCAACAGCGCCAACAACCACUACGCCGCUCAGACCCUGAGCGUGAGCUGCGACGUGCCCGCCAACAUCAGAUUCAUGCUGCUGAGAUCAACCACCCCCACCUACAGCCACGGCAAGAAGUUCAGCGUGGGCCUGGGCCACGGCUGGGACAGCAUCGUGAGCGUGAACGGCGUGGACACGGGCGAGACCACUAUGCGUUGGUACAAGGCCGGCACACAGAGCCUGACCAUCGGCAGCAGACUGUAUGGCGAAAGCUCCAAAAUCCAACCCGGCGUGCUGUCGGGGAGCGCCACCCUGCUGAUGAUACUGCCCGGAGGCAGCAGCGGCGGCGCCGACGUGCAGAUCAACAUCAGAGGCAACGUGUAUAUUCCGCCUAGCAGUGGUGGUGGGGGUAGCUCCGGCUCCGGAAGCAGCUGCGAGGGCAUCAGCCUGCUGGCUCAGAACACAAGCUGGCUGCUGCUGCUGCUGCUGAGCCUGAGCCUGCUGCAAGCCACCGACUUCAUGAGCCUGUGAUGAGCUCGCUUUCUUGCUGUCCAAUUUCUAUUAAAGGUUCCUUUGUUCCCUAAGUCCAACUACUAAACUGGGGGAUAUUAUGAAGGGCCUUGAGCAUCUGGAUUCUGCCUAAUAAAAAACAUUUAUUUUCAUUGCAAAAAAAAAAAAAAAAAAAAAAAAAAAAAAAAAAAAAAAAAAAAAAAAAAAAAAAAAAAAAAAAAAAAAAAAAAAAAAAAAA
modifications: modRNA in LNP
B2: PapG^LD N96S G104A: PapG lectin domain N96S with G104A ligand binding site mutation; SEQ ID NO: 16 (protein)
chain: METDTLLLWVLLLWVPGSTGWNNIVFYSLGNVNSYQGGNVVITQRPQFITSWRPGIATVTWNQCNGPEFADGSWAYYREYIAWVVFPKKVMTKNGYPLFIEVHNKGSWSEENTGDSDSYFFLKAYKWDERAFDAGNLCQKPGETTRLTEKFNDIIFKVALPADLPLGDYSVTIPYTSGIQRHFASYLGARFKIPYNVAKTLPRENEMLFLFKNIGG
B3: PapG^LD N96S G122A: PapG lectin domain N96S with G122A putative conformation stabilizing mutation; SEQ ID NO: 20 (protein)
chain: METDTLLLWVLLLWVPGSTGWNNIVFYSLGNVNSYQGGNVVITQRPQFITSWRPGIATVTWNQCNGPEFADGSWAYYREYIAWVVFPKKVMTKNGYPLFIEVHNKGSWSEENTGDSDSYFFLKGYKWDERAFDAGNLCQKPAETTRLTEKFNDIIFKVALPADLPLGDYSVTIPYTSGIQRHFASYLGARFKIPYNVAKTLPRENEMLFLFKNIGG
B4: PapG^LD N96S WTv1: WT PapG lectin domain (V1, first PapG operon), N96S removes non-native glycosylation, His-tagged; SEQ ID NO: 13 (protein)
chain: METDTLLLWVLLLWVPGSTGWNNIVFYSLGNVNSYQGGNVVITQRPQFITSWRPGIATVTWNQCNGPEFADGSWAYYREYIAWVVFPKKVMTKNGYPLFIEVHNKGSWSEENTGDSDSYFFLKGYKWDERAFDAGNLCQKPGETTRLTEKFNDIIFKVALPADLPLGDYSVTIPYTSGIQRHFASYLGARFKIPYNVAKTLPRENEMLFLFKNIGG
modifications: His tag
B5: PapG^DSF N96S N242S N286S: Full-length donor strand complemented PapG, fully aglycosylated at N96S, N242S and N286S, His-tagged (protein)
chain: WNNIVFYSLGNVNSYQGGNVVITQRPQFITSWRPGIATVTWNQCNGPEFADGSWAYYREYIAWVVFPKKVMTKNGYPLFIEVHNKGSWSEENTGDSDSYFFLKGYKWDERAFDAGNLCQKPGETTRLTEKFNDIIFKVALPADLPLGDYSVTIPYTSGIQRHFASYLGARFKIPYNVAKTLPRENEMLFLFKNIGGCRPSAQSLEIKHGDLSINSANNHYAAQTLSVSCDVPANIRFMLLRSTTPTYSHGKKFSVGLGHGWDSIVSVNGVDTGETTMRWYKAGTQSLTIGSRLYGESSKIQPGVLSGSATLLMILPGGSSGGADVQINIRGNVYIPP

Assays:
[1] = system: E. coli strain CFT073 expressing the fimbrial adhesin PapG; assay: PapG hemagglutination inhibition (HAI) assay on sera of mice immunized with PapG modRNA LNPs; format: in vivo; details: 1 μg, 50 μl IM
Source text: Escherichia coli to the uroepithelium of human kidney. The PapG lectin binds to the globoside (GbO4) glycolipid, which is enriched in urinary tract tissue and consists of the tetrasacharide GalNAcβ1-3Galα1-4Galβ1-4Glc linked to ceramide. Here we present the use of a hemagglutination inhibition assay (HAI) to determine vaccine functional responses to protein subunit PapG or mRNA-expressed PapG antigens. In this assay the agglutination of human red blood cells (hRBCs) expressing GbO4 is caused by live E. coli CFT073 bacteria expressing PapG. The HAI assay measures the ability of PapG-elicited antibodies to prevent hRBC agglutination, exemplifying inhibition of the key bacterial adherence mechanism leading to clinical pyelonephritis. The assay was used to characterize the functional activity of PapG monoclonal antibodies (mAbs) raised against a PapG lectin domain subunit antigen. PapG HAI data from a mouse immunogenicity study are described that evaluated various 5 monovalent PapG modRNA LNPs and a PapG subunit comparator.
In this mouse study immunogenicity of different PapG mRNA constructs were evaluated. […]
iii. PapG Hemagglutination Inhibition Assay (HAI) 1. Preparation of Single Use Frozen E. coli CFT073 Banks Frozen bacterial stocks for use in the PapG HAI are stored at a concentration of ˜15 OD/mL. For stock preparation, take 6 ×100 μL of frozen parental strain CFT073 glycerol stock to seed six overnight cultures with ˜85 mL Luria's Broth (LB) each in 250 mL vented flasks. Flasks are shaken at 200 rpm and 37° C. overnight. On the same day, prepare 100 mL LB media with 30% glycerol and 0.4% sucrose by mixing […] 80% Glycerol with 0.8 mL 50% Sucrose in 64 mL LB and pre-chill at 4° C. After ˜16 h growth, determine the OD600 nm of each flask with the SpectraMax M5e plate reader by adding 100 μL culture to 900 μL LB (1:10 dilution). After reading the OD600, harvest cells by pelleting in a centrifuge at 4,000g, 4° C., for 30 minute. Determine the total OD of each of the six flasks, by multiplying the volume by OD/mL of each flask and divide by 15 OD to give the appropriate pellet resuspension volume. Discard supernatants and resuspend all pellets in the pre-chilled LB cryopreservant containing 30% glycerol and 0.4% sucrose, with a final volume as calculated above. Pool all resuspended pellets and mix gently, then aliquot into 1 mL/cryotube, and freeze at −70° C.
2. Preparing 10% hRBC Working Solution From Stock
Gently mix human red blood cells (hRBC) bottle (Rockland) by rocking ˜20×times, pipet out 10 mL of the hRBCs into a 15 ml conical tube. Centrifuge at 2,000 rpm(˜990×g) for 10 minutes and 4° C. Aspirate and discard the supernatant, then resuspend the pellet with 9 mL 4° C. PBS. The packed hRBCs in 15 mL conical tube should constitute roughly 1 mL of this total volume. Store these 10% hRBCs at 4° C. until use. […]
iv. PapG Hemagglutination Inhibition (HAI) Assay
The PapG hemagglutination inhibition (HAI) assay uses human red blood cells (hRBCs), which naturally express the PapG ligand GbO4 (globotetraosyl ceramide) on the cell surface, and the E. coli strain CFT073 expressing the fimbrial adhesin PapG. Upon mixing bacteria with hRBCs, […] cells remain suspended (presenting as a cloudy well), while no binding results in the red blood cells falling out of solution towards the center of the well (observed as pellet).
The total final well volume is 100 μL, with serum dilutions comprising 25 μL of this volume, strain CFT073 cells in […] volume, and hRBCs in a 50 μL volume. The assay plate is a V-bottom plate to which 25 μL 4° C. PBS is initially added to all wells. The positive control wells receive an additional 25 μL 4° C. PBS. The no-serum negative control consists of E. coli CFT073 cells plus hRBCs only (resulting agglutinated well appears cloudy). To accommodate pre-diluted sera transferred from the serum Master Dilution plate (MDP) an extra 5 μL 4° C. PBS is added to wells in Row A of the assay plate (columns 1 to 12). […]

[2] = PapG Luminex ligand binding assay with globoside GbO4; details: result in words
Description: 9. PapG Ligand Binding Assay with Globoside GbO4
To determine the ability of PapGLD mutants to bind the porcine derived globotetraosyl ceramide ligand GalNAc-Gal-Gal-Glc-ceramide (GbO4), a Luminex ligand binding assay was developed. Surfactant Protein-A (SP-A) was coupled to the surface of MagPlex beads by EDC/NHS, to capture the lipid tail of the globotetraosyl ceramide. The Globotetraosyl ceramide/SP-A beads were incubated with an eight-point threefold titration of PapG in a 96 well flat bottom white plate with final volume of 100 microliters of 50 mM HEPES PH 7.4, 10 mM NaCl, 0.0005% Tween 20 shaking at 300 rpm, 4° C. overnight. After 20-24 hours the ligand binding plates were read on a FlexMap 3D plate reader for measurement of well-bead region specific MFI. Ligand binding equilibrium dissociation constants (Kd) were calculated assuming one site specific binding and interpolated using non-linear curve fitting (GraphPad Prism) as the ligand concentration needed to achieve half-maximal binding. The Luminex derived apparent Kd values are based on approximately fifty bead counts per assay sample.
Binding of PapG proteins to GbO2 or GbO4 ligands was evaluated using a Luminex platform wherein ligands were coupled to MagPlex beads via surfactant protein A (for […]) or directly using […] conjugation (for […]). This assay was used to rank order binding affinities of the mutants, reported as Kd values interpolated from protein antigen titration curves (Table 7).

[3] = Thermal shift (SYPRO orange) melting temperature, apo form; format: physicochemical; details: apo state, PBS pH 7.4
Description: PapG proteins were added to assay buffer (consisting of 4% DMSO, 1:1000 dilution of SYPRO orange (Invitrogen S6650) in PBS pH 7.4) at a final concentration of […]. Melt curves were analyzed in a QuantStudio 6 Real-time PCR system (ThermoFisher) using a dissociation protocol from 25° C. to 99° C., at 0.05° C./second. ROX was specified as the reporter.
The thermal stability of PapG WT and mutant proteins were determined using a SYPRO orange thermal shift-based differential scanning fluorimetry assay, wherein Tm designates the temperature at which 50% of the protein is unfolded. Non-covalent ligands often stabilize protein targets upon specific binding, resulting in an increase in protein melting temperature. Tm were therefore determined in the presence and absence of GbO3 for PapG, and the difference in Tm (ΔTm) of protein in the presence of ligand relative to the apo form was calculated.

Molecule | Step Titer GMT (HAI) ([1]; weeks 0, 4, bleed week 6, GMT of individual titers) | Step Titer Pool (HAI) ([1]; weeks 0, 4, bleed week 6, serum pool) | binding to GbO4 ligand [2] | Tm (Ave.) [3] [°C]
B1 | 85,681 | 81,000 |  | 
B2 |  |  | prevent binding to GbO4; also recorded: lower the binding affinity; also recorded: eliminate ligand binding | 64.54
B3 |  |  | reduced binding | 
B4 |  |  |  | 61.29
B5 |  |  |  | 61.82
